Assay results from US20260097113A1 (Pfizer, published 2026).

T1: RSV F protein of subtype A comprising a polypeptide of SEQ ID NO: 1 and a polypeptide of SEQ ID NO: 2 (RSV subtype A, UniProt P11209 137-513; P03420 26-109)
T1 construct: Stabilized prefusion F trimer made of three F2-F1 heterodimers; Produced recombinantly in CHO cells; also called RSV A; RSVA
T1 chain 1: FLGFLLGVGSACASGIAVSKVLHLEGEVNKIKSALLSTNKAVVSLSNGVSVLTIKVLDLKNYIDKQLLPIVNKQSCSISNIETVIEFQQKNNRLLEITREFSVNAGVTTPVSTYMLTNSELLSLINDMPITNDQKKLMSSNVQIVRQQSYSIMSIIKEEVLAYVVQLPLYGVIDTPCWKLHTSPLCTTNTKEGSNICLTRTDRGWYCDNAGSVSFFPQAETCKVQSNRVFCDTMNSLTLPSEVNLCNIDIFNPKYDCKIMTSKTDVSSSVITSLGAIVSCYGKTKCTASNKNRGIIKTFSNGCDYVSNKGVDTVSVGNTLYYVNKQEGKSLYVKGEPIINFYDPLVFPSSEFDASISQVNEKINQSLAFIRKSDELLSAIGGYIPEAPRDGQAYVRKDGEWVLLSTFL
T1 chain 2: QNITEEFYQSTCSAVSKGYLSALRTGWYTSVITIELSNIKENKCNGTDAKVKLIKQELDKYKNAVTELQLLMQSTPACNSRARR

B1: AM14 (trimeric prefusion specific antibody of the AM14 ELISA) (antibody, V domains shown)
VH: EVQLVESGGGVVQPGRSLRLSCAASGFSFSHYAMHWVRQAPGKGLEWVAVISYDGENTYYADSVKGRFSISRDNSKNTVSLQMNSLRPEDTALYYCARDRIVDDYYYYGMDVWGQGATVTVSS
VL: DIQMTQSPSSLSASVGDRVTITCQASQDIKKYLNWYHQKPGKVPELLMHDASNLETGVPSRFSGRGSGTDFTLTISSLQPEDIGTYYCQQYDNLPPLTFGGGTKVEIKR
notes: Antibody as used in the AM14 ELISA, detected with an HRP-labeled secondary antibody

What was measured:
[1] = molecular target: RSV A + RSV B bivalent composition (RSV subtype A; RSV subtype B); test: AM14 Fab titration by SEC; High-Slow 2 cycle; 1 M 40°C (second value)
[2] = molecular target: RSV A + RSV B bivalent composition (RSV subtype A; RSV subtype B); test: AM14 Fab titration by SEC; composition of Table 14; Annealing Ramp Aggressive cycle
[3] = molecular target: RSV A + RSV B bivalent composition (RSV subtype A; RSV subtype B); test: AM14 Fab titration by SEC; Low-Fast cycle; 3 M 25°C (second value)
[4] = molecular target: RSV A + RSV B bivalent composition (RSV subtype A; RSV subtype B); test: AM14 Fab titration by SEC; Target cycle; 1 M 25°C (second value)
[5] = molecular target: RSV A + RSV B bivalent composition (RSV subtype A; RSV subtype B); test: AM14 Fab titration by SEC; Low-Fast cycle; 3 M 40°C
[6] = molecular target: RSV A + RSV B bivalent composition (RSV subtype A; RSV subtype B); test: AM14 Fab titration by SEC; High-Slow 2 cycle; 3 M 25°C
[7] = molecular target: RSV A + RSV B bivalent composition (RSV subtype A; RSV subtype B); test: AM14 Fab titration by SEC; Target cycle; 8 M 40°C
[8] = molecular target: T1, RSV F protein of subtype A comprising a …; test: AM14 ELISA; F18 (pH 7, 50 mM NaCl, 3% sucrose + 3% mannitol); 1 wk 25°C
[9] = molecular target: T1, RSV F protein of subtype A comprising a …; test: AM14 ELISA; F11 (pH 7, 50 mM NaCl, 9.0% sucrose); 2 wk 25°C
[10] = molecular target: T1, RSV F protein of subtype A comprising a …; test: AM14 ELISA; F4 (pH 6, 50 mM NaCl, 4.5% sucrose); 1 wk 5°C
[11] = molecular target: T1, RSV F protein of subtype A comprising a …; test: AM14 ELISA; F16 (pH 6, 0 mM NaCl, 0% sucrose); 2 wk 5°C
[12] = molecular target: T1, RSV F protein of subtype A comprising a …; test: AM14 ELISA; F8 (pH 7, 50 mM NaCl, 0% sucrose); 2 wk 5°C
[13] = molecular target: T1, RSV F protein of subtype A comprising a …; test: AM14 ELISA; F12 (pH 8, 100 mM NaCl, 9.0% sucrose); T0
[14] = molecular target: T1, RSV F protein of subtype A comprising a …; test: AM14 ELISA; F3 (pH 8, 0 mM NaCl, 9% sucrose); T0
[15] = molecular target: T1, RSV F protein of subtype A comprising a …; test: AM14 ELISA; F2 (pH 8, 0 mM NaCl, 0% sucrose); 1 wk 5°C
[16] = molecular target: T1, RSV F protein of subtype A comprising a …; test: AM14 ELISA; F15 (pH 6, 0 mM NaCl, 9% sucrose); 1 wk 25°C
[17] = molecular target: T1, RSV F protein of subtype A comprising a …; test: AM14 ELISA; F12 (pH 8, 100 mM NaCl, 9.0% sucrose); 2 wk 5°C

Row | Molecule | Prefusion Content (%) [1] | Prefusion Content (%) [2] | Prefusion Content (%) [3] | Prefusion Content (%) [4] | Prefusion Content (%) [5] | Prefusion Content (%) [6] | Prefusion Content (%) [7] | AM14 prefusion content (%), relative to standard [8] | AM14 prefusion content (%), relative to standard [9] | AM14 prefusion content (%), relative to standard [10] | AM14 prefusion content (%), relative to standard [11] | AM14 prefusion content (%), relative to standard [12] | AM14 prefusion content (%), relative to standard [13] | AM14 prefusion content (%), relative to standard [14] | AM14 prefusion content (%), relative to standard [15] | AM14 prefusion content (%), relative to standard [16] | AM14 prefusion content (%), relative to standard [17]
1 | AM14 Fab | 68% | 81% | 68% | 65% | 70% | 74% | 67% |  |  |  |  |  |  |  |  |  | 
2 | B1 |  |  |  |  |  |  |  | 83% | 82% | 76% | 67% | 101% | 100% | 95% | 86% | 99% | 72%
